From the supplement of paper PMC9732359
± gives the uncertainty stated by the source.

Experiment: protein stability index of a GFP-peptide fusion (yeast GPS) (PSI 1-4); higher = more stable; sorted into four equal gates, so the index is relative within each strain
Method in brief: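 Tiled yeast protein peptides of 17 residues were each joined downstream of GFP, on plasmids that also express Cherry. The pooled library was maintained in yeast, and mid-log cultures in leucine-free medium were sorted into four equal gates on the GFP/Cherry ratio. Plasmids from every gate were amplified by PCR and sequenced on Illumina, with barcodes linking reads to strains. The protein stability index of a peptide is its gate-number-weighted read frequency summed over the gates.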

TGEKPIITGSTSTSSSN [MED8]
protein stability index (doa10∆): 2.79 ± 0.048
protein stability index (pdr5∆): 2.52 ± 0.04
protein stability index (san1∆): 2.57 ± 0.044
protein stability index (ubr1∆): 2.37 ± 0.033

TAQKYPIYTGDGWVKLT [YMR153W/NUP53]
protein stability index (doa10∆): 1.63 ± 0.062
protein stability index (pdr5∆): 1.77 ± 0.06
protein stability index (san1∆): 1.62 ± 0.1
protein stability index (ubr1∆): 1.21 ± 0.041

SSEILSYLSNSLDTSAS [YML103C/NUP188]
protein stability index (doa10∆): 2.96 ± 0.091
protein stability index (pdr5∆): 2.7 ± 0.069
protein stability index (san1∆): 2.25 ± 0.063
protein stability index (ubr1∆): 2.65 ± 0.055

KSVKFVQGLLQNAAANA [RPL17A]
protein stability index (doa10∆): 2.56 ± 0.065
protein stability index (pdr5∆): 2.65 ± 0.068
protein stability index (san1∆): 2.28 ± 0.05
protein stability index (ubr1∆): 2.46 ± 0.034

MTAQQAPKWYPSEDVAA [RPL6B]
protein stability index (doa10∆): 1.77 ± 0.11
protein stability index (pdr5∆): 1.7 ± 0.074
protein stability index (san1∆): 1.84 ± 0.091
protein stability index (ubr1∆): 1.71 ± 0.11

YQDIEGGFEDVEEYTWS [RPB2]
protein stability index (doa10∆): 3.44 ± 0.14
protein stability index (pdr5∆): 3.29 ± 0.11
protein stability index (san1∆): 3.49 ± 0.066
protein stability index (ubr1∆): 3.44 ± 0.099

EIEQVCKQVHDKLTSIQ [MED7]
protein stability index (doa10∆): 2.92 ± 0.067
protein stability index (pdr5∆): 3.23 ± 0.04
protein stability index (san1∆): 2.92 ± 0.06
protein stability index (ubr1∆): 2.89 ± 0.055

EVVSEAINIMNRSNDAL [FAS2]
protein stability index (doa10∆): 3.32 ± 0.12
protein stability index (pdr5∆): 3.44 ± 0.13
protein stability index (san1∆): 3.44 ± 0.049
protein stability index (ubr1∆): 3.31 ± 0.16

ENENILIKAKNFLVFQG [SMC1]
protein stability index (doa10∆): 1.22 ± 0.094
protein stability index (pdr5∆): 1.25 ± 0.12
protein stability index (san1∆): 1.96 ± 0.22
protein stability index (ubr1∆): 1.17 ± 0.11

KFDSRIRGILMASGSTT [PRP8]
protein stability index (doa10∆): 2.44 ± 0.084
protein stability index (pdr5∆): 2.18 ± 0.11
protein stability index (san1∆): 2.06 ± 0.12
protein stability index (ubr1∆): 2.19 ± 0.13

GKPTVNKKPKNKKKGRK [SRP72]
protein stability index (doa10∆): 3.42 ± 0.084
protein stability index (pdr5∆): 3.29 ± 0.1
protein stability index (san1∆): 2.93 ± 0.1
protein stability index (ubr1∆): 3.24 ± 0.092

TNAKIPQFDSTQPKSSS [SSN3]
protein stability index (doa10∆): 3.03 ± 0.042
protein stability index (pdr5∆): 3.01 ± 0.044
protein stability index (san1∆): 3.09 ± 0.039
protein stability index (ubr1∆): 2.98 ± 0.032

LKDLMDLCDVVESKFTE [RPC19]
protein stability index (doa10∆): 3.61 ± 0.2
protein stability index (pdr5∆): 3.5 ± 0.11
protein stability index (san1∆): 3.27 ± 0.11
protein stability index (ubr1∆): 3.26 ± 0.12

RAANQGALPPDLSLIVK [CYT1]
protein stability index (doa10∆): 2.95 ± 0.11
protein stability index (pdr5∆): 3 ± 0.074
protein stability index (san1∆): 3.03 ± 0.18
protein stability index (ubr1∆): 2.87 ± 0.074

EVLCSRIIEKSVRRSGA [RRP45]
protein stability index (doa10∆): 2.38 ± 0.066
protein stability index (pdr5∆): 3.21 ± 0.076
protein stability index (san1∆): 2.41 ± 0.1
protein stability index (ubr1∆): 2.94 ± 0.1

DLLDMIQFGAKNMFEKK [ISW2]
protein stability index (doa10∆): 3.25 ± 0.14
protein stability index (pdr5∆): 3.29 ± 0.24
protein stability index (san1∆): 3 ± 0.16

GEVLGITRFGLSKMRDS [RPO31]
protein stability index (doa10∆): 3.56 ± 0.12
protein stability index (pdr5∆): 3.26 ± 0.11
protein stability index (san1∆): 3.19 ± 0.075
protein stability index (ubr1∆): 3.46 ± 0.1

TANALPLPAVFSAPIRP [RPL4A]
protein stability index (doa10∆): 1.79 ± 0.042
protein stability index (pdr5∆): 2.1 ± 0.042
protein stability index (san1∆): 1.87 ± 0.065
protein stability index (ubr1∆): 1.98 ± 0.04

QNKKNLKWVAVVPDLGH [SSN2]
protein stability index (doa10∆): 2.67 ± 0.085
protein stability index (pdr5∆): 3.07 ± 0.051
protein stability index (san1∆): 2.81 ± 0.07
protein stability index (ubr1∆): 3.02 ± 0.1

NFNSSAPIADDNHSGDA [DSN1]
protein stability index (doa10∆): 1.92 ± 0.081
protein stability index (pdr5∆): 2.8 ± 0.1
protein stability index (san1∆): 2.45 ± 0.09
protein stability index (ubr1∆): 2.68 ± 0.067

LYAVSTFENTNNTEKND [SIR4]
protein stability index (doa10∆): 2.37 ± 0.072
protein stability index (pdr5∆): 2.4 ± 0.075
protein stability index (san1∆): 2.5 ± 0.083
protein stability index (ubr1∆): 2.38 ± 0.057

QTATQLLERGRLRKRVT [SMC2]
protein stability index (doa10∆): 3.04 ± 0.11
protein stability index (pdr5∆): 3.04 ± 0.083
protein stability index (san1∆): 2.92 ± 0.064
protein stability index (ubr1∆): 2.42 ± 0.078

ISVNSSSFSLTFFPRCI [POP1]
protein stability index (doa10∆): 2.55 ± 0.03
protein stability index (pdr5∆): 2.66 ± 0.035
protein stability index (san1∆): 2.44 ± 0.039
protein stability index (ubr1∆): 2.44 ± 0.031

FGIYILTQGINGKEVPL [MED1]
protein stability index (doa10∆): 1.48 ± 0.1
protein stability index (pdr5∆): 1.45 ± 0.068
protein stability index (san1∆): 2.43 ± 0.14
protein stability index (ubr1∆): 1.38 ± 0.066

AFYQKGNKLVELMRIIS [SMC1]
protein stability index (doa10∆): 1.59 ± 0.27
protein stability index (pdr5∆): 1.15 ± 0.19
protein stability index (ubr1∆): 1.38 ± 0.25

MENNEPAMAMEDLKNFI [SRB8]
protein stability index (doa10∆): 3.18 ± 0.074
protein stability index (pdr5∆): 3.29 ± 0.081
protein stability index (san1∆): 3.24 ± 0.043
protein stability index (ubr1∆): 3.08 ± 0.068

SSLALVFALHKYKPTPL [SMC4]
protein stability index (doa10∆): 2.18 ± 0.052
protein stability index (pdr5∆): 2.18 ± 0.074
protein stability index (san1∆): 2.17 ± 0.088
protein stability index (ubr1∆): 2.93 ± 0.055

EKRHKNVPVHVSPAFRV [RPS11A]
protein stability index (doa10∆): 1.8 ± 0.051
protein stability index (pdr5∆): 2.72 ± 0.077
protein stability index (san1∆): 2.9 ± 0.07
protein stability index (ubr1∆): 2.75 ± 0.053

TSTKDKNSSTSNTEPIP [MED1]
protein stability index (doa10∆): 3.17 ± 0.058
protein stability index (pdr5∆): 3.27 ± 0.061
protein stability index (san1∆): 3.21 ± 0.046
protein stability index (ubr1∆): 3.16 ± 0.041

SNRCIVFSKKEPFPHSK [CSN12]
protein stability index (doa10∆): 2.58 ± 0.052
protein stability index (pdr5∆): 2.85 ± 0.047
protein stability index (san1∆): 2.81 ± 0.065
protein stability index (ubr1∆): 2.72 ± 0.043

FFLRDTLLWNKNDKLIK [SNF5]
protein stability index (doa10∆): 2.4 ± 0.062
protein stability index (pdr5∆): 2.04 ± 0.059
protein stability index (san1∆): 2.06 ± 0.067
protein stability index (ubr1∆): 2.42 ± 0.027

QFLQLDNDGFSFLMRQF [ECM29]
protein stability index (doa10∆): 1.33 ± 0.042
protein stability index (pdr5∆): 1.54 ± 0.061
protein stability index (san1∆): 1.45 ± 0.072
protein stability index (ubr1∆): 1.83 ± 0.051

INTHIETLAYNSLKETL [SNF2]
protein stability index (doa10∆): 2.48 ± 0.054
protein stability index (pdr5∆): 2.76 ± 0.063
protein stability index (san1∆): 2.5 ± 0.047
protein stability index (ubr1∆): 2.61 ± 0.042

LRAAQQQWGNDFYKRDP [FAS2]
protein stability index (doa10∆): 2.44 ± 0.068
protein stability index (pdr5∆): 2.77 ± 0.051
protein stability index (san1∆): 2.32 ± 0.12
protein stability index (ubr1∆): 2.71 ± 0.047

KVSDPYVPTRNTFNYDV [RPN4]
protein stability index (doa10∆): 2.25 ± 0.14
protein stability index (pdr5∆): 2.39 ± 0.17
protein stability index (san1∆): 1.8 ± 0.28
protein stability index (ubr1∆): 2.08 ± 0.085

LSSDEKRELLKRYRLKE [RPB5]
protein stability index (doa10∆): 3.08 ± 0.2
protein stability index (pdr5∆): 3.27 ± 0.17
protein stability index (ubr1∆): 3.52 ± 0.14

NLIIFLYKFNGWSLVGR [YML103C/NUP188]
protein stability index (doa10∆): 1.59 ± 0.069
protein stability index (pdr5∆): 2.22 ± 0.11
protein stability index (san1∆): 2.52 ± 0.2
protein stability index (ubr1∆): 2.68 ± 0.11

MTLLTDSLRKLYVDSES [MTW1]
protein stability index (doa10∆): 1.45 ± 0.078
protein stability index (pdr5∆): 1.79 ± 0.11
protein stability index (san1∆): 1.65 ± 0.11
protein stability index (ubr1∆): 1.59 ± 0.077

DNIDYAPMRLATAALEI [YJL039C/NUP192]
protein stability index (doa10∆): 2.35 ± 0.058
protein stability index (pdr5∆): 2.44 ± 0.041
protein stability index (san1∆): 2.29 ± 0.077
protein stability index (ubr1∆): 2.31 ± 0.042

LNDPSLKIQFILSTTLD [SIN4]
protein stability index (doa10∆): 1.11 ± 0.055
protein stability index (pdr5∆): 1.45 ± 0.074
protein stability index (san1∆): 1.32 ± 0.14
protein stability index (ubr1∆): 1.18 ± 0.042

KKSGSLTFNSKNIQSKD [FAS2]
protein stability index (doa10∆): 3.2 ± 0.12
protein stability index (pdr5∆): 3.29 ± 0.13
protein stability index (san1∆): 3.26 ± 0.13
protein stability index (ubr1∆): 3.27 ± 0.075

SGPFKVNGVPLRRVNAR [RPL6A]
protein stability index (doa10∆): 2.67 ± 0.25
protein stability index (pdr5∆): 2.84 ± 0.2
protein stability index (san1∆): 2.96 ± 0.24
protein stability index (ubr1∆): 2.77 ± 0.075

RQLAGAIGYEPLSLTHR [DIS3]
protein stability index (doa10∆): 2.94 ± 0.057
protein stability index (pdr5∆): 2.87 ± 0.057
protein stability index (san1∆): 2.86 ± 0.07
protein stability index (ubr1∆): 2.93 ± 0.041

GLNDLVEQYKFRETTHS [BRR2]
protein stability index (doa10∆): 3.16 ± 0.091
protein stability index (pdr5∆): 3.03 ± 0.074
protein stability index (san1∆): 2.84 ± 0.082
protein stability index (ubr1∆): 3.1 ± 0.061

GDNEYITLRTSGELLQG [MCD1]
protein stability index (doa10∆): 3.14 ± 0.13
protein stability index (pdr5∆): 3.11 ± 0.16
protein stability index (san1∆): 3.16 ± 0.097
protein stability index (ubr1∆): 3.36 ± 0.096

QEQVYPDFKPWEHTAAE [SRB8]
protein stability index (doa10∆): 2.44 ± 0.16
protein stability index (pdr5∆): 2.94 ± 0.13
protein stability index (san1∆): 3.17 ± 0.076
protein stability index (ubr1∆): 2.93 ± 0.11

ELDQEYRSCETQDESEI [SMC4]
protein stability index (doa10∆): 3.11 ± 0.12
protein stability index (pdr5∆): 3.24 ± 0.21
protein stability index (san1∆): 2.67 ± 0.19
protein stability index (ubr1∆): 3.31 ± 0.091

VSGNNASDEPSRKKNRR [SSN3]
protein stability index (doa10∆): 2.67 ± 0.1
protein stability index (pdr5∆): 3.01 ± 0.11
protein stability index (san1∆): 2.78 ± 0.14
protein stability index (ubr1∆): 2.91 ± 0.096

KERLTKEAAAIAEGKSK [RPL8B]
protein stability index (doa10∆): 2.19 ± 0.05
protein stability index (pdr5∆): 2.33 ± 0.056
protein stability index (san1∆): 2.02 ± 0.073
protein stability index (ubr1∆): 2.38 ± 0.033

LSILNEIKKVTQIVAKF [SIN4]
protein stability index (doa10∆): 3.13 ± 0.16
protein stability index (pdr5∆): 2.39 ± 0.14
protein stability index (san1∆): 2.37 ± 0.11
protein stability index (ubr1∆): 2.87 ± 0.091

MSNTLFDDIFQVSEVDP [RPB8]
protein stability index (doa10∆): 3.02 ± 0.084
protein stability index (pdr5∆): 2.77 ± 0.098
protein stability index (san1∆): 2.85 ± 0.1
protein stability index (ubr1∆): 3.08 ± 0.054
